Data set [1] concerns c-Abl (mouse). Nature of the data set: phosphorylation enrichment, bacterial display (enrichment ratio); higher = better substrate or ligand; peptides without Tyr show the background.
The test system of data set [2] is c-Src. The description is as above.
The target of data set [3] is Jak2 (UniProt O60674). The data set is described as above.
The target of data set [4] is Fyn (UniProt P06241). The description is as above.
The target in data set [5] is Hck (UniProt P08631). The data set is described as above.
The test system of data set [6] is AncSZ. Described as above.
For data set [7], the target named is EPHB1 (UniProt P54762). The data set is described as above.
Data set [8] has as its target Fes (UniProt P07332). Described as above.
Data set [9] deals with FGFR1 (UniProt P11362). The description is as above.
In data set [10] the test system is Fer (mouse). The description is as above.
The target of data set [11] is EPHB2 (UniProt P29323). The data set is described as above.
Data set [12] concerns the target MERTK (UniProt Q12866). Described as above.
In data set [13] the target is FGFR3 (UniProt P22607). The description is as above.
Data set [14] concerns the target SHP2-C SH2. Nature of the data set: SH2 binding enrichment of the phosphorylated peptide, bacterial display (enrichment ratio); higher = better substrate or ligand; peptides without Tyr show the background.
The target of data set [15] is c-Src SH2. Described as above.
The target in data set [16] is Grb2 SH2 (UniProt P62993). The description is as above.
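For SH2 binding enrichment of the phosphorylated peptide, bacterial display in this document: peptide library displayed on the E. coli surface as eCPX fusions, selected cells deep-sequenced, score is each peptide's frequency after selection divided by its frequency in the input.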
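For phosphorylation enrichment, bacterial display in this document: 11-residue human phosphosite peptides and single-mutation variants displayed on the E. coli surface, counted by deep sequencing, each peptide's frequency after selection divided by its frequency in the unselected input library; frequency after pTyr selection over input frequency; kinase dosed for 20-30% of maximal phosphorylation in three min.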

Chain of FGFR3 (P22607 whole entry, looked up): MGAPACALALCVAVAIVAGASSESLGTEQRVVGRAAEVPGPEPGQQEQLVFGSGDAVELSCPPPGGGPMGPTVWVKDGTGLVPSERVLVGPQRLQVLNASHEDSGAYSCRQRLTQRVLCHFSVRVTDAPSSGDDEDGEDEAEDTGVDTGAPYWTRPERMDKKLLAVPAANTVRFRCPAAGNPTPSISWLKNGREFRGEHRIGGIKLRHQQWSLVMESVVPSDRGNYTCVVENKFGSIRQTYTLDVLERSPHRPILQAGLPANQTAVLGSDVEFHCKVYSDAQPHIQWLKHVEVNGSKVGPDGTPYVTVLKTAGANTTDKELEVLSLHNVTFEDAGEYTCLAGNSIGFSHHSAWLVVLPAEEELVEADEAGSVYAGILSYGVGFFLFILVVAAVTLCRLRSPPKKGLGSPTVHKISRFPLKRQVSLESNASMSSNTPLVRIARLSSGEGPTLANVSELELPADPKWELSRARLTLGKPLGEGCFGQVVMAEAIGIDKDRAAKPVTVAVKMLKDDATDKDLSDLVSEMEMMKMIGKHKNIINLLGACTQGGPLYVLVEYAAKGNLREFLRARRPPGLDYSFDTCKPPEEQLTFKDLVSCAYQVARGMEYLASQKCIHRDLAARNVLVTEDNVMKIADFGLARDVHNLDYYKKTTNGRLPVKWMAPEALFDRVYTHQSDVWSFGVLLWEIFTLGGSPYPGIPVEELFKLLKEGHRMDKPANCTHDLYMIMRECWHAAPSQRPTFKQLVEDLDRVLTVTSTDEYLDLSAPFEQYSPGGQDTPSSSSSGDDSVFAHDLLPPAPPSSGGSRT
Chain of EPHB1 (P54762 whole entry, looked up): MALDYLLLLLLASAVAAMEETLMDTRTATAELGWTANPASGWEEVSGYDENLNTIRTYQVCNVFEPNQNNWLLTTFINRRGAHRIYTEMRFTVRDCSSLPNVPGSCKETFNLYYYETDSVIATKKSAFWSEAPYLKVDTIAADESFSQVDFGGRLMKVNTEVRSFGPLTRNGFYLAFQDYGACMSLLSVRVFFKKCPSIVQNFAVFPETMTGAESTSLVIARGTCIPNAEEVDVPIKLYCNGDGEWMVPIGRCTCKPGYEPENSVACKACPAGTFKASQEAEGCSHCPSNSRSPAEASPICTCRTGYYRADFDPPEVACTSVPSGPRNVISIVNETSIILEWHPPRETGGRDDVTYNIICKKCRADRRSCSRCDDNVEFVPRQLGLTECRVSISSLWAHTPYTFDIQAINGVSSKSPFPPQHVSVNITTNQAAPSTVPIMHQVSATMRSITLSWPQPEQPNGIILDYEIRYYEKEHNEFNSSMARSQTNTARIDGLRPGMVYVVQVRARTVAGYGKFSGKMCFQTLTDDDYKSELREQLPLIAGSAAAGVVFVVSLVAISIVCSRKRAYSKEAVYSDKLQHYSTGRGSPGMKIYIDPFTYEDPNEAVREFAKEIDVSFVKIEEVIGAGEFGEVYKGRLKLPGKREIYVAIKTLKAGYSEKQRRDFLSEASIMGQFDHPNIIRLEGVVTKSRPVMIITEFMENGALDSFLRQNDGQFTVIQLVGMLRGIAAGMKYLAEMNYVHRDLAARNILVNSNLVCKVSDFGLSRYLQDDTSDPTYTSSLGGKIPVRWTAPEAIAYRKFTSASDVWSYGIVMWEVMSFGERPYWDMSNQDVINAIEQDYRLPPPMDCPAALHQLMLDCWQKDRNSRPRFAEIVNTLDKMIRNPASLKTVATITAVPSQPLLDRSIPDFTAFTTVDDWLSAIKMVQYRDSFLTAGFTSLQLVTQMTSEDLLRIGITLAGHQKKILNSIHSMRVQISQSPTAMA
Chain of Jak2 (O60674 whole entry, looked up): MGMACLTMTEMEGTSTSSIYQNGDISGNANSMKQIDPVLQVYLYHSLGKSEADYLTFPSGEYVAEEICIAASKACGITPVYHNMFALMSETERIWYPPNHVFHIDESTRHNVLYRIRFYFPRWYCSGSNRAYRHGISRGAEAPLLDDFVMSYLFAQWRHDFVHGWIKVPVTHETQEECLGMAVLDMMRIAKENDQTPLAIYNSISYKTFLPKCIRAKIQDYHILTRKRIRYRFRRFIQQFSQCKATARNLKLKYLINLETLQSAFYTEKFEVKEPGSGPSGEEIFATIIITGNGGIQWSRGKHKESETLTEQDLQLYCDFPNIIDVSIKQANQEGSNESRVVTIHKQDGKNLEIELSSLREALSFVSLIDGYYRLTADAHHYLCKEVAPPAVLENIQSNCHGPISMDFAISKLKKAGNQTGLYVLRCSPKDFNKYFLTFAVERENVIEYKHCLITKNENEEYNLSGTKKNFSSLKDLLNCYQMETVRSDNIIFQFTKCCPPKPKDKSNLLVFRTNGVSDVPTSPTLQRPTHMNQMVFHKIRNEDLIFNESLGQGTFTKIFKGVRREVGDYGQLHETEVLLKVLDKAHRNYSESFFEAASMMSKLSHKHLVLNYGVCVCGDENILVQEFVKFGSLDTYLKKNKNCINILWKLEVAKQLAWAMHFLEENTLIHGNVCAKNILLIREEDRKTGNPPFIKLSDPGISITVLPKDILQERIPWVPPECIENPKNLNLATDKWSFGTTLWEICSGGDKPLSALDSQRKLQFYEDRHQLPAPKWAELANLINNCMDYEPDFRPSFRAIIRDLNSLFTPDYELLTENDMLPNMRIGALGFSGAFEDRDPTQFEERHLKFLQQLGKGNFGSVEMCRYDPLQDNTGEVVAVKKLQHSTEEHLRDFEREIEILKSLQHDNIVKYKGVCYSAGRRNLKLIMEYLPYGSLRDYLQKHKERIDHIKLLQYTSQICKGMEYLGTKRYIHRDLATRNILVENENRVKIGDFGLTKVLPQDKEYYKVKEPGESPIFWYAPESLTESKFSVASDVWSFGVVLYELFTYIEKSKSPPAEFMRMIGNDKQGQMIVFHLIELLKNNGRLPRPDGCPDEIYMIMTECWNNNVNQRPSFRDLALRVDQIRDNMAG
Chain of Fyn (P06241 whole entry, looked up): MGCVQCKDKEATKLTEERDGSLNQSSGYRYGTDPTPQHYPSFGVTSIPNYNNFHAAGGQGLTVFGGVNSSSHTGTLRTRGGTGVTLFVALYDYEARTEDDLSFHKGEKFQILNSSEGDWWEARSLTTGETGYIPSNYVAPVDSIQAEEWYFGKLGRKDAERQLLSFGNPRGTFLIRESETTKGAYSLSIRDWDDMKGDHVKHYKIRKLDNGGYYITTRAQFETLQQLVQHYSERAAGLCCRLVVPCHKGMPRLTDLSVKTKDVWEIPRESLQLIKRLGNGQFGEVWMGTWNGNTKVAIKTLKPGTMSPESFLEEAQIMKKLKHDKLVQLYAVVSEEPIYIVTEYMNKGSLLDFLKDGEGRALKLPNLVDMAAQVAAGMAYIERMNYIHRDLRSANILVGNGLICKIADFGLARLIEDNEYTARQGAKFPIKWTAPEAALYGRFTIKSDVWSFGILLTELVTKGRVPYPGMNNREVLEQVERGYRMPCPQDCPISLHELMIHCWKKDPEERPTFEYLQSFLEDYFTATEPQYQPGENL
Chain of Hck (P08631 whole entry, looked up): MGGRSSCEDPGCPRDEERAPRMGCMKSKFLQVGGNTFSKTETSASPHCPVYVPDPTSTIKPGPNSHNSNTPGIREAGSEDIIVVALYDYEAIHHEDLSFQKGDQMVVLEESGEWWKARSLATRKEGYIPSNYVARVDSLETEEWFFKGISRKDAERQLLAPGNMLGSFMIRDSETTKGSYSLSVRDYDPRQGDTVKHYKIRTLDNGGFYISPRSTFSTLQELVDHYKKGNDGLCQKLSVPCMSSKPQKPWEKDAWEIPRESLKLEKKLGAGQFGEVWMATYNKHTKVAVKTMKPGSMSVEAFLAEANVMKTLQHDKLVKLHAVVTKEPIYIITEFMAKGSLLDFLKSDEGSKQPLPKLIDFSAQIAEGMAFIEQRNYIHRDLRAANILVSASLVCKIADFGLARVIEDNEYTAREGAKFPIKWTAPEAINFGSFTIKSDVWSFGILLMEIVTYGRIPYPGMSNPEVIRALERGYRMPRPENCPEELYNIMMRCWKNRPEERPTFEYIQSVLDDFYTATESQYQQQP
Chain of FGFR1 (P11362 whole entry, looked up): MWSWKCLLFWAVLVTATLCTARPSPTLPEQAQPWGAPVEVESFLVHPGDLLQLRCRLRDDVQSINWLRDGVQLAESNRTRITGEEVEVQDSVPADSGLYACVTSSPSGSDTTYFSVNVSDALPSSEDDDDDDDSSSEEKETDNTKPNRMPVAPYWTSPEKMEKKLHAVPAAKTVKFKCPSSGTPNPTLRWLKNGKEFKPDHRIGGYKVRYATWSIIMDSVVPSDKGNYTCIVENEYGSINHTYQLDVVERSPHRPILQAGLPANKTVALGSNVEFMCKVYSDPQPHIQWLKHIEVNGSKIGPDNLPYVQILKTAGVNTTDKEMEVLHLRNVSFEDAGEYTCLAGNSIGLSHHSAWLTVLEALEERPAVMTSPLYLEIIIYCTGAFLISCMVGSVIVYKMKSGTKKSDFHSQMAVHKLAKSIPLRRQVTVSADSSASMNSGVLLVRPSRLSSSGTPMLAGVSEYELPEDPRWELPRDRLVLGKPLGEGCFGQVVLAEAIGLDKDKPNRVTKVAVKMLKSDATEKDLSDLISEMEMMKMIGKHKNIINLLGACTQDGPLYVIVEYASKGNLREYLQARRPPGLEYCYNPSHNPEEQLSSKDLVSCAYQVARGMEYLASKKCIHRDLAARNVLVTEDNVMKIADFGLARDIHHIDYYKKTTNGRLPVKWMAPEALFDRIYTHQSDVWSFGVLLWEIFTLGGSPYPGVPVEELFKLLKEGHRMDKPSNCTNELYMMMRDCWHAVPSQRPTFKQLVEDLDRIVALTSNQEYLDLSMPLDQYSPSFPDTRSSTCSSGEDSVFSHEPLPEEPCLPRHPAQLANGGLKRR
Chain of Grb2 SH2 (P62993 whole entry, looked up, the tested form may be a part): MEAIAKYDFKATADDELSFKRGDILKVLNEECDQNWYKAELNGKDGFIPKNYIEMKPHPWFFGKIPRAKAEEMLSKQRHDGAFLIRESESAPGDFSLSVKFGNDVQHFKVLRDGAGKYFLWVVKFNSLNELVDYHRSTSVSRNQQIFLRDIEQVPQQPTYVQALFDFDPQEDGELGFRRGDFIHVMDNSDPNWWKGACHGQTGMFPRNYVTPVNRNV

As to RQGQAYRGQRV [TSHR_Y706_A703G], the phosphorylation enrichment in data set [1] came out at 0.458; in data set [2] it was 0.453; in data set [3], 0.48; in data set [4] it was 0.509; in [5], 0.47; in [6], 0.718. In addition, the phosphorylation enrichment in data set [7] came out at 0.338; in [8], 0.805; in [9] it was 0.452; in data set [10] it was 0.649; in data set [11], 0.339; in [12], 0.454. Also, in [13], the phosphorylation enrichment turned out to be 0.447. Further, the figures for the SH2 binding enrichment in data set [14], in data set [15] and in data set [16] were 0.334, 0.489 and 0.552, respectively.

Consider RQNNSYTCFTA [SLC20A2_Y386_R382Q_YF], for which the phosphorylation enrichment in data set [1] came to 0.802; in [2] it was 0.712; in [3], 0.951; in [4], 0.537; in data set [5], 0.544; in data set [6] it was 1.04. The phosphorylation enrichment in [7] is 0.819; in data set [8], 0.898; in data set [9], 0.663; in [10], 0.751; in data set [11], 0.658; in data set [12] it was 0.938. For the same sequence, the phosphorylation enrichment in data set [13] was determined as 0.904. Besides, the SH2 binding enrichment in [14] is 0.998; in data set [15] it was 0.923; in data set [16], 0.85.

Take RQNQEYEILLD [KRT39_Y379]: the phosphorylation enrichment stood at 1.04 in data set [1]; 0.733 in [2]; 1.67 in [3]; 0.634 in [4]; 0.705 in data set [5]; 1.38 in data set [6]. Also, the phosphorylation enrichment in [7] was 1.35; in [8] it was 1.6; in data set [9] it was 0.622; in [10], 0.595; in data set [11], 1.21; in data set [12] it was 0.63. Also, the phosphorylation enrichment in data set [13] is 0.678. Further, the results for the SH2 binding enrichment in [14], in [15] and in data set [16] were 1.57, 1.21 and 1.19, respectively.

In the case of RRGLLYDSDEE [MCM2_Y137], the phosphorylation enrichment in data set [1] turned out to be 0.59; in data set [2], 0.763; in data set [3], 0.77; in data set [4], 1.29; in data set [5], 1.16; in data set [6] it was 1.25. In addition, the phosphorylation enrichment amounted to 0.796 in data set [7]; 1.13 in [8]; 0.898 in [9]; 1.08 in data set [10]; 0.642 in data set [11]; 0.855 in data set [12]. Besides, the phosphorylation enrichment in data set [13] is 1.3. The SH2 binding enrichment in [14] came to 0.81; in [15], 0.606; in data set [16], 0.661.

With RRGMPYGGLGD [TGM1_Y312_R315L], the phosphorylation enrichment in [1] is 0.66; in data set [2], 0.398; in [3], 0.352; in [4], 0.503; in [5] it was 0.391; in data set [6], 0.618. The phosphorylation enrichment in data set [7] came to 0.302; in [8], 0.663; in data set [9], 0.445; in [10], 0.456; in data set [11], 0.536; in [12], 1.02. In addition, in [13], the phosphorylation enrichment was determined as 0.443. The SH2 binding enrichment is 0.501 in [14], 0.33 in [15] and 0.712 in data set [16].

With RRGTGYTLSLP [MAGEC3_Y152], the phosphorylation enrichment in data set [1] was 0.764; in data set [2], 0.497; in data set [3], 0.477; in data set [4], 0.73; in [5], 0.693; in data set [6], 0.579. Moreover, the phosphorylation enrichment in data set [7] came to 0.553; in data set [8] it was 0.812; in data set [9], 0.772; in data set [10], 0.564; in data set [11], 0.643; in data set [12] it was 0.551. The phosphorylation enrichment in [13] was found to be 0.643. Further, the SH2 binding enrichment in data set [14] is 0.556; in [15], 0.358; in [16], 0.686.

On to RRIHSYRGYLW [VHL_Y112_H115Y], for which the phosphorylation enrichment turned out to be 0.375 in data set [1]; 0.517 in data set [2]; 0.717 in data set [3]; 0.551 in data set [4]; 0.64 in data set [5]; 0.646 in [6]. Also, the phosphorylation enrichment in data set [7] came out at 0.614; in data set [8], 0.905; in data set [9] it was 0.581; in data set [10] it was 0.676; in data set [11], 0.605; in [12] it was 0.488. Besides, in data set [13], the phosphorylation enrichment stood at 0.915. Further, the SH2 binding enrichment in data set [14] is 0.534; in data set [15], 0.53; in [16], 0.902.

Take RSAGKYDVFFI [MECP2_Y120_L124F_YF]: the phosphorylation enrichment in data set [1] worked out at 0.796; in data set [2], 0.751; in data set [3] it was 1.38; in data set [4], 0.678; in data set [5], 0.642; in [6] it was 1.03. Moreover, the phosphorylation enrichment in data set [7] worked out at 0.651; in [8], 1.09; in data set [9], 1.02; in data set [10] it was 0.519; in data set [11] it was 0.773; in [12], 0.722. Besides, in data set [13], the phosphorylation enrichment turned out to be 1.53. Also, the SH2 binding enrichment in [14] was 0.794; in data set [15], 1.11; in data set [16], 1.28.

Values taken from the supplement of paper PMC10065799, “High-throughput profiling of sequence recognition by tyrosine kinases and SH2 domains using bacterial peptide display” (eLife, 2023).
